# T1: recombinant human STAT1 (Biosource), P42224
# T1 chain: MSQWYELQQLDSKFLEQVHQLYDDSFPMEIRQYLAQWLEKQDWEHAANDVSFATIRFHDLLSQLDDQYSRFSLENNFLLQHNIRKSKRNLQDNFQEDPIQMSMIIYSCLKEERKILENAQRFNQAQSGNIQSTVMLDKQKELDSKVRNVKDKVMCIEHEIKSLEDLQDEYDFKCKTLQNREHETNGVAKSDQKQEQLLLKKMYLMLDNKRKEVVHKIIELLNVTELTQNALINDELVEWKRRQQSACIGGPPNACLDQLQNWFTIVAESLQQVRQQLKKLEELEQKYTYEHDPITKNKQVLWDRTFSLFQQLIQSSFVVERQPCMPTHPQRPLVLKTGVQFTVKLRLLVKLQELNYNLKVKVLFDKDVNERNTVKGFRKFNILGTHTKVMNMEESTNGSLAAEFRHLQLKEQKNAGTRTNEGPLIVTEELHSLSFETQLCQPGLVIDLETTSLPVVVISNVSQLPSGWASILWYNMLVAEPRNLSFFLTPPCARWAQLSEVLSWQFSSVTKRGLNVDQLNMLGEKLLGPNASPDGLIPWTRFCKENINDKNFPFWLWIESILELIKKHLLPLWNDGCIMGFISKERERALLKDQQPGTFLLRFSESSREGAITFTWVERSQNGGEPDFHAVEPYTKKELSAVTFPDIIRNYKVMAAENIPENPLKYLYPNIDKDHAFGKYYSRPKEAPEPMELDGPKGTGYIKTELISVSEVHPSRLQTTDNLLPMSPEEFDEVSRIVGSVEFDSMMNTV
# B1: GST-Δ52-hSLIM (protein)
# chain: MALTVDVAGPAPWGFRITGGRDFHTPIMVTKVAERGKAKDADLRPGDIIVAINGESAEGMLHAEAQSKIRQSPSPLRLQLDRSQATSPGQTNGDSSLEVLATRFQGSVRTYTESQSSLRSSYSSPTSLSPRAGSPFSPPPSSSSLTGEAAISRSMDSEGGSLLLDEDSEVFKMLQENREGRAAPRQSSSFRLLQEALEAEERGGTPAFLPSSLSPQSSLPASRALATPPKLHTCEKCSTSIANQAVRIQEGRYRHPGCYTCADCGLNLKMRGHFWVGDELYCEKHARQRYSAPATLSSRA
# B2: GST-SLIM (bacterially expressed wild-type GST-hSLIM) (protein)
# chain: MALTVDVAGPAPWGFRITGGRDFHTPIMVTKVAERGKAKDADLRPGDIIVAINGESAEGMLHAEAQSKIRQSPSPLRLQLDRSQATSPGQTNGDSSLEVLATRFQGSVRTYTESQSSLRSSYSSPTSLSPRAGSPFSPPPSSSSLTGEAAISRSFQSLACSPGLPAADRLSYSGRPGSRQAGLGRAGDSAVLVLPPSPGPRSSRPSMDSEGGSLLLDEDSEVFKMLQENREGRAAPRQSSSFRLLQEALEAEERGGTPAFLPSSLSPQSSLPASRALATPPKLHTCEKCSTSIANQAVRIQEGRYRHPGCYTCADCGLNLKMRGHFWVGDELYCEKHARQRYSAPATLSSRA
# Assays:
# [1] = biological target: UbcH5a (human recombinant E2), P51668
# [2] = biological target: T1, recombinant human STAT1 (Biosource), …
# Chain of UbcH5a (human recombinant E2), P51668 (P51668 whole entry): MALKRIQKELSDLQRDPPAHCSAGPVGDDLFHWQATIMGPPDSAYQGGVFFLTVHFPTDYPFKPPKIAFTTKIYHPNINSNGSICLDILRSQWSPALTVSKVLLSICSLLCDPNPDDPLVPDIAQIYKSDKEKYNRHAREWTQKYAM
Protein,ubiquitination of WT-Δ52-hSLIM with different human E2 enzymes (Avidin-HRP blot) [1],"ubiquitination of STAT1 (ubiquitin transfer assay, Avidin-HRP blot) [2]"
B1,WT-A52-hSLIM demonstrates preferential ubiquitination in the presence of UbcH5a,"WT-Δ52-hSLIM demonstrates E3 ligase activity by transferring ubiquitin to a biologically relevant downstream substrate, STAT1"
B2,,WT-SLIM mediates the ubiquitination of STAT1 and demonstrates strong E3 ligase activity towards both STAT1 and hSLIM

# Source: patent publication US20060205032
